Laboratory results published in publication PMC7618776, “Direct recruitment of Mis18 to interphase spindle pole bodies promotes CENP-A chromatin assembly” (Current biology : CB, 2023).

Target: T1, 6His-msfGFP-TEV-Mis18FL (S. pombe, UniProt Q9P802 1-194)
T1 construct: Mis18, S. pombe, full length (residues 1-194); Cloned into the vector pET His6 msfGFP TEV (9GFP, Addgene 48287); also called GFP-Mis18; 6His-GFP-Mis18FL; source: E. coli BL21 Gold, purified (HisTrap HP, SEC); not shown: msfGFP, N-terminal, kept
T1 sequence (looked up): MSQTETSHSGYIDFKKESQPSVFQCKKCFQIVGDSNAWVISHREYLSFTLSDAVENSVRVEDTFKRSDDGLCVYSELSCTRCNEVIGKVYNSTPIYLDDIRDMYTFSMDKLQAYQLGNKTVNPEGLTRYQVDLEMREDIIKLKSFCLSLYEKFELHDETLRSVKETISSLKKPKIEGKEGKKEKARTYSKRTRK
Experiment: pull-down; 6His-MBP-Sad1(2-167) or 6His-MBP on amylose resin mixed with candidate binding proteins, each protein at 5 μM; 20 mM HEPES pH 7.0, 150 mM NaCl, 1 mM TCEP, 0.01% Tween-20; 4°C 1 hr; Coomassie-stained SDS-PAGE
Settings: both partners purified

B1: 6His-MBP-Sad1(2-167) (domain or fragment, S. pombe, UniProt Q09825 2-167, looked up)
chain: FTNTPVGGKRERQNGAHPAWSTLGANSAQIHQNTADLASKMHKLRYTKIRSPPTRVSIESITPKQRFPAPNFEQAYHSNIRYEQEESDNEEFENVVKNGHEASTNVFYESDGDDEEFVNEEYENSIDEESDDEGYSLNEDTTATNASFRYPMNQRSTRKSQFYSSK
notes: Cloned into the vector pET-6His-MBP-TEV (9C, Addgene 48286) by LIC; also called MBP-Sad1-N; source: E. coli BL21-CodonPlus (DE3)-RIPL, purified (TALON resin); not shown: His6, N-terminal, kept; MBP, N-terminal, kept
binding result: binds
